Test results taken from patent US20120114652A1 (AbbVie / Abbott, published 2012).
Positions count from the first letter of the chain named.

T1: rabbit PAI-1 (rabbit)
T1 chain: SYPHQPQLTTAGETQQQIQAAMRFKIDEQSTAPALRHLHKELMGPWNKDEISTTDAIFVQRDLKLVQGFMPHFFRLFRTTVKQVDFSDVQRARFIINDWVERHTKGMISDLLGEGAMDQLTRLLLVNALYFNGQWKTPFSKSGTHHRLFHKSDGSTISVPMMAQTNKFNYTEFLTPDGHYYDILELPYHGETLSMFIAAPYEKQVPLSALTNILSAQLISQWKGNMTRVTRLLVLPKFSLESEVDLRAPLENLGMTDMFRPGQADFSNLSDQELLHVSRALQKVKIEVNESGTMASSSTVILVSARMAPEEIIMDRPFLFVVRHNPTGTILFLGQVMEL

B1: Antibody 01, IgG1, not germlined (antibody, V domains shown)
VH: QVQLVQSGAEVKKPGSSVKVSCKASGGTFSSYAISWVRQAPGQGLEWMGGIIPIFGTANYAQKFQGRVTITADESTSTAYMELSSLRSEDTAVYYCAREKRQWLEGHFDYWGRGTLVTVSS
VL: DIQMTQSPSTLSASVGDRVTITCRASEGIYRSLAWYQQKPGKAPKLLIYKASSLASGVPSRFSGSGSGTEFTLTISSLQPDDFATYYCQQYSNYPLTFGGGTKVEIK
B2: Antibody 16, scFv (scFv, V domains shown)
VH: B1 VH with I54T
VL: B1 VL with G28S, R31H, G66R
B3: Antibody 15, scFv (scFv, V domains shown)
VH: B1 VH with V5Q, I54T, S85G, L116P
VL: B1 VL with T5A, T10F, V15I, R31H, S32N, K50R, V58A, E70D, V104L, K107R
B4: Antibody 02, IgG1, not germlined (antibody, V domains shown)
VH: B1 VH with I54T
VL: B1 VL with R31H, N93D
B5: Antibody 20, scFv (scFv, V domains shown)
VH: B1 VH with V5Q, I54T
VL: B1 VL with R31H, S32E, K50R, G66R, N93D
B6: Antibody 27, scFv (scFv, V domains shown)
VH: B1 VH with V5Q, T28A, I54T, S85G, L116P
VL: B1 VL with T10F, V15I, R31H, S32N, K50R, V58A, E70D, V104L
B7: Antibody 09, scFv (scFv, V domains shown)
VH: B1 VH with V5Q, I54A, G56D, S85G, L116P
VL: B1 VL with T10F, V15I, R24Q, R31H, S32N, K50R, V58A, E70D, V104L
B8: Antibody 27, IgG1, not germlined (antibody, V domains shown)
VH: B1 VH with V5Q, T28A, I54T, S85G, L116P
VL: B1 VL with T10F, V15I, R31H, S32N, K50R, V58A, E70D, V104L
notes: whole IgG1; also called Ab 27
B9: Antibody 18, scFv (scFv, V domains shown)
VH: B1 VH with V5Q, I54T, F64L, S85G, L116P
VL: B1 VL with T10F, V15I, R31H, S32A, K50R, V58A, E70D, V104L
B10: rat PAI-1 (other)
chain: SPLPESHTAQQATNFGVKVFQHVVQASKDRNVVFSPYGVSSVLAMLQLTTAGKTRQQIQDAMGFNISERGTAPALRKLSKELMGSWNKNEISTADAIFVQRDLELVQGFMPHFFKLFRTTVKQVDFSEVERARFIINDWVERHTKGMISDLLAKGAVNELTRLVLVNALYFNGQWKTPFLEASTHQRLFHKSDGSTISVPMMAQNNKFNYTEFTTPDGHEYDILELPYHGETLSMFIAAPFEKDVPLSAITNILDAELIRQWKSNMTRLPRLLILPKFSLETEVDLRGPLEKLGMTDIFSSTQADFTSLSDQEQLSVAQALQKVKIEVNESGTVASSSTAILVSARMAPTEMVLDRSFLFVVRHNPTETILFMGQLMEP
notes: bought (US Biological)
B11: mouse PAI-1 (other)
chain: ALPLRESHTAHQATDFGVKVFQQVVQASKDRNVVFSPYGVSSVLAMLQMTTAGKTRRQIQDAMGFKVNEKGTAHALRQLSKELMGPWNKNEISTADAIFVQRDLELVQGFMPHFFKLFQTMVKQVDFSEVERARFIINDWVERHTKGMINDLLAKGAVDELTRLVLVNALYFSGQWKTPFLEASTHQRLFHKSDGSTVSVPMMAQSNKFNYTEFTTPDGLEYDVVELPYQGDTLSMFIAAPFEKDVHLSALTNILDAELIRQWKGNMTRLPRLLILPKFSLETEVDLRGPLEKLGMPDMFSATLADFTSLSDQEQLSVAQALQKVRIEVNESGTVASSSTAFVISARMAPTEMVIDRSFLFVVRHNPTETILFMGQVMES
notes: bought (US Biological); also called murine PAI-1
B12: Antibody 02, IgG4, not germlined (antibody, V domains shown)
VH: B1 VH with I54T
VL: B1 VL with R31H, N93D
notes: whole IgG4; also called Ab 02
B13: Antibody 01, IgG4, not germlined (antibody, V domains shown)
VH: B1 VH
VL: B1 VL
notes: whole IgG4; also called Ab 01

biological target: B11; assay: cell-based or functional assay

| IC50 HT-1080 Exo PAI-1 | Binder |
| --- | --- |
| 15.8 nM | B1 |
| 17.6 nM | B2 |
| 37 nM | B3 |
| 10.9 nM | B4 |
| 18.1 nM | B5 |
| 16.4 nM | B6 |
| 21 nM | B7 |
| 7.8 nM | B8 |

biological target: T2, human PAI-1, active, wild-type, non-glycosylated (E. coli-derived) (human, UniProt P05121 24-402); assay: cell-based or functional assay

| IC50 HT-1080 Exo PAI-1 | Binder |
| --- | --- |
| 11.2 nM | B1 |
| 16.9 nM | B2 |
| 36 nM | B3 |
| 8.7 nM | B4 |
| 19.1 nM | B5 |
| 18.8 nM | B6 |
| 23 nM | B7 |
| 10.9 nM | B8 |

biological target: B10; assay: cell-based or functional assay

| IC50 HT-1080 Exo PAI-1 | Binder |
| --- | --- |
| 52.6 nM | B2 |
| 57 nM | B3 |
| 42.4 nM | B5 |
| 33.8 nM | B6 |
| 52.7 nM | B7 |
| 37 nM | B9 |
| 16.1 nM | B8 |

biological target: T2, human PAI-1, active, wild-type, …; assay: cell-based or functional assay; remark: another data set of the same source

| IC50 chromogenic (FIG. 2a) | Binder |
| --- | --- |
| 3.6 nM | B2 |

biological target: T3, cynomolgus PAI-1 (cynomolgus, UniProt P05121 24-402 (human entry), limits assumed); assay: cell-based or functional assay

| IC50 chromogenic (FIG. 2b) | Binder |
| --- | --- |
| 0.8 nM | B2 |

biological target: B10; assay: cell-based or functional assay; remark: another data set of the same source

| fold higher IC50 in the rat chromogenic assay, against the human assay | Binder |
| --- | --- |
| ~180 fold | B9 |

biological target: B11; assay: cell-based or functional assay; remark: another data set of the same source

| IC50 chromogenic | IC50 ratio mouse/human | Binder |
| --- | --- | --- |
| 30 nM | 20 | B1 |
| 4.3 nM |  | B2 |
| 66.9 nM | 9.3 | B3 |
| 167 nM | 104 | B4 |
| 4.9 nM |  | B5 |
| 319 nM | 255 | B9 |
| 16.1 nM | 3.3 | B8 |

biological target: T2, human PAI-1, active, wild-type, …; assay: cell-based or functional assay; remark: another data set of the same source

| IC50 chromogenic | Binder |
| --- | --- |
| 1.5 nM | B1 |
| 7.2 nM | B3 |
| 1.6 nM | B4 |
| 1.3 nM | B9 |
| 4.9 nM | B8 |

biological target: T3, cynomolgus PAI-1; assay: cell-based or functional assay; remark: another data set of the same source

| IC50 chromogenic | IC50 ratio cyno/human | Binder |
| --- | --- | --- |
| 0.7 nM | 0.4 | B1 |
| 2.2 nM | 0.3 | B3 |
| 1.3 nM |  | B5 |
| 2.2 nM |  | B6 |
| 0.7 nM |  | B7 |
| 0.5 nM | 0.4 | B9 |

biological target: B10; assay: cell-based or functional assay; remark: another data set of the same source

| IC50 chromogenic | IC50 ratio rat/human | Binder |
| --- | --- | --- |
| 99.3 nM | 66.2 | B1 |
| 5.6 nM |  | B2 |
| 64.2 nM | 8.9 | B3 |
| 510 nM | 317 | B4 |
| 49.8 nM |  | B6 |
| 29.7 nM |  | B7 |
| 238 nM | 190 | B9 |
| 26.5 nM | 5.4 | B8 |

biological target: PICK167_A01 IgG1; assay: competition ELISA (DELFIA): PICK167_A01 IgG1 coated on the plate, binding of biotinylated human PAI-1 detected with streptavidin-Eu3+ in the presence of a titration of the unlabelled test antigen (the varied molecule)

| IC50 (read off the curve) | Binder |
| --- | --- |
| ~2 nM | B10 |
| ~4 nM | B11 |

biological target: T4, latent human PAI-1 (human, UniProt P05121 24-402); assay: competition ELISA (DELFIA), IgG coated, competitor titrated against biotinylated active human PAI-1
T4 construct: also called latent PAI-1

| IC50 ratio latent/wt | Binder |
| --- | --- |
| 6.8 | B8 |

biological target: B11; assay: as above

| IC50 ratio mouse/wt | Binder |
| --- | --- |
| 6.1 | B8 |

Biological target: T1, rabbit PAI-1
Assay: as above

| IC50 ratio rabbit/wt | Binder |
| --- | --- |
| 4.8 | B12 |
| 9 | B13 |
| 85 | B8 |

biological target: B10; assay: as above

| IC50 ratio rat/wt | Binder |
| --- | --- |
| 1.2 | B8 |

biological target: glycosylated active human PAI-1 produced by CHO cells (human, UniProt P05121 24-402, N-glycosylated (CHO-produced)); assay: cell-based or functional assay

| IC50 chromogenic, hu glyco | Binder |
| --- | --- |
| 1.7 nM | B1 |
| 1.5 nM | B4 |
| 2.6 nM | B8 |

biological target: T5, PICK167_A01-fgl IgG1 (CAT-1001); assay: competition ELISA (DELFIA): PICK167_A01-fgl IgG1 (CAT-1001) coated on the plate, binding of biotinylated human PAI-1 detected with streptavidin-Eu3+ in the presence of a titration of the unlabelled test antigen (the varied molecule)
T5 construct: fully germlined variant, made as an IgG1 only; also called PICK67A01-fgl

| IC50 (read off the curve) | Binder |
| --- | --- |
| ~1 nM | B10 |
| ~2 nM | B11 |
